T1: soluble mouse GPNMB (recombinant extracellular domain) (mouse, UniProt Q99P91 23-502)
T1 construct: also called moGPNMB; not shown: C-terminal polyhistidine or Avi-His tag
T1 sequence: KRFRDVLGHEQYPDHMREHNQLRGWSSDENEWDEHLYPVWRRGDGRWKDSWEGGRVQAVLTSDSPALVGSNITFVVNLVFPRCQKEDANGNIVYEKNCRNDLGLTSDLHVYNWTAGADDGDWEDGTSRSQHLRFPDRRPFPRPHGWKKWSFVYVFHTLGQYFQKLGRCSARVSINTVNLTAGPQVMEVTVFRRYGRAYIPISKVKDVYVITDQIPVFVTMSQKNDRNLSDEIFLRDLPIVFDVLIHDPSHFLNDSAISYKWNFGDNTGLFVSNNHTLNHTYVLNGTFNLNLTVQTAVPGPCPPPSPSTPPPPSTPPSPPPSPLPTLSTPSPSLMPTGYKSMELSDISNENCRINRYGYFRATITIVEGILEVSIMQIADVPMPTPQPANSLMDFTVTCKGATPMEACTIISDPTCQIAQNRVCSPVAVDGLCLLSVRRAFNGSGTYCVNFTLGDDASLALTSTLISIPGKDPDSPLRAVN

T2: soluble mouse GPNMB-Fc polypeptide (mouse IgG2A Fc) (mouse, UniProt Q99P91 23-502)
T2 construct: extracellular domain; bought (R&D System); also called moGPNMB-Fc; mGPNMB-Fc; not shown: Fc region of mouse IgG2A
T2 sequence (looked up): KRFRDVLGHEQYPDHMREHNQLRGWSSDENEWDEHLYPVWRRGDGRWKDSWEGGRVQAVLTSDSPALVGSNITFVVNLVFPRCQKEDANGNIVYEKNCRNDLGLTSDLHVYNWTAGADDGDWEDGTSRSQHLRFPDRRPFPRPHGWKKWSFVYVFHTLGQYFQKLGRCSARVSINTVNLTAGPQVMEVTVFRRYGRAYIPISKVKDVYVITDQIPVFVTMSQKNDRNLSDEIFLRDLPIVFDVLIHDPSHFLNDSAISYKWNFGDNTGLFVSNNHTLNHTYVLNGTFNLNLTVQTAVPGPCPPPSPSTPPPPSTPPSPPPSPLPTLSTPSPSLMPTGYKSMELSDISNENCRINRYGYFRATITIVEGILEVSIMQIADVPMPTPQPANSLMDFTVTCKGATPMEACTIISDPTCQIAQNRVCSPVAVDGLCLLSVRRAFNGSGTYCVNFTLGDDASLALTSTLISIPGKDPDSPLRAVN


Columns and labels:
[1] = target: T1, soluble mouse GPNMB (recombinant …); experiment: SPR Carterra, Ab immobilized
How it was run: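 Analyte series of GPNMB extracellular domain (2.5, 7.4, 22, 67, 200, 600 nM) flowed in ascending order, no regeneration, over IgG1 antibodies EDC/NHS-immobilized on an HC200M array. HBS-EP+ plus 0.5 mg/ml BSA as running buffer, two blanks per series. Affinity estimated via high-throughput kinetic fitting.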

[2] = target: T2, soluble mouse GPNMB-Fc polypeptide …; experiment: FACS, blocking of moGPNMB-Fc binding to SVEC4-10 cells
Procedure: Purified full-length anti-GPNMB antibodies of the present disclosure were evaluated for their ability to block binding of moGPNMB-Fc to SVEC4-10 cells to determine the ligand blocking potency of each anti-GPNMB monoclonal antibody. Briefly, 2 μg/mL moGPNMB-Fc (mouse IgG2A Fc) diluted in binding buffer was pre-complexed with increasing concentrations of anti-GPNMB antibody of the present disclosure or human IgG1 isotype control antibody in 96-well plates. Subsequently, 100,000 SVEC4-10 cells were added per well and incubated on ice for 30 minutes. Soluble moGPNMB-Fc bound to cell surface was detected with fluorescent anti-mouse IgG2A secondary antibody and measured on FACSCanto. (FIG. 5A and FIG. 5B) IC50 values (for antibodies that block moGPNMB-Fc cell binding) and EC50 values (for antibodies that enhance moGPNMB-Fc cell binding) based on changes in MFI values were calculated (average+standard error) for each anti-GPNMB antibody and listed in Table 6. In Table 6, NA indicates no activity. […] In all cases, certain anti-GPNMB antibodies of the present disclosure blocked soluble GPNMB binding to cells, while other anti-GPNMB antibodies of the present disclosure enhanced soluble GPNMB binding to cells.

[3] = target: T1, soluble mouse GPNMB (recombinant …); experiment: SPR Biacore, IgG captured

Binder | Kd [1] | koff [1] | kon [1] | IC50 [2] | Kd [3] | koff [3] | kon [3]
anti-GPNMB antibody GPN-38 (antibody, human IgG1, V domains shown, chimeric) VH: QVQLQQPGAELVRPGTSVRLSCKASGYTFTSYWIHWVKQRPGRGLEWIGVIDPSDSYTNYNQQFNVKATLTVDTSSSAAYMQLSSLTSEDSAVYYCARGLITAVNWYFDVWGTGTTVTVSS VL: DIQMTQSPASLSTSVGEIVTITCRASENIYSYLTWYQQKQGKSPQLLVYNAKTLAEGVPSRFSGSGSGTQFSLKINSLQPEDFGTYYCQHHYGTPLTFGSGTKLEIK | 3.45 nM | 7.8e-05 s⁻¹ | 23000 M⁻¹ s⁻¹ |  |  |  | 
anti-GPNMB antibody GPN-43 (antibody, human IgG1, V domains shown, chimeric) VH: EVQLQQSGPELVKPGASVKISCKASGYTFTDYYMNWVRQSHGKSLEWIGDINPYHGGSTYNQKIKVKATLTVDKSSSTAYMELRSLTSEDSAVYYCARNWPYFDYWGQGTTLTVSS VL: DIQMTQSPASLSASVGETVTITCRASENIYSFLVWYQQKQGKSPQLLVYNAKTLAEGVPSRFSGSGSGTQFSLKISSLQPEDFGSYYCQHHFGTPPYTFGGGTKLEIK |  |  |  | 5.37 nM |  |  | 
anti-GPNMB antibody GPN-83 (antibody, V domains shown) VH: QVQLQESGPGLVKPSETLSLTCTVSGISITTGNYRWSWIRQPPGKGLEWIGYIDYSGTITYNPSLKSRVTITRDTSKNQFSLELSSVTAADTAVYYCARDLTHWYFDVWGQGTLVTVSS VL: DIVMTQSPDSLAVSLGERATINCKSSRSVDYYGIGFVNWYQQKPGQPPKLLIYATSIQGSGVPDRFSGSGSGTDFTLTISSLQAEDVAVYYCQQQKEVPPTFGGGTKVEIK |  |  |  |  | 1.5 nM | 0.00024 s⁻¹ | 160000 M⁻¹ s⁻¹
anti-GPNMB antibody GPN-86 (antibody, V domains shown) VH: QVQLQESGPGLVKPSETLSLTCTVSGISITTGNYRWSWIRQPPGKGLEWIGYIDYSGTITYNPSLKSRVTITRDTSKNQFSLELSSVTAADTAVYYCARDLTHWYFDVWGQGTLVTVSS VL: DIVMTQSPDSLAVSLGERATINCKSSRSVDYYGIGFLNWYQQKPGQPPKLLIYATSKQGSGVPDRFSGSGSGTDFTLTISSLQAEDVAVYYCQQQKEVPPTFGGGTKVEIK |  |  |  |  | 1.2 nM | 0.00023 s⁻¹ | 190000 M⁻¹ s⁻¹
anti-GPNMB antibody GPN-84 (antibody, V domains shown) VH: QVQLQESGPGLVKPSETLSLTCTVSGISITTGNYRWSWIRQPPGKGLEWIGYIDYSGTITYNPSLKSRVTITRDTSKNQFSLELSSVTAADTAVYYCARDLTHWYYDVWGQGTLVTVSS VL: DIVMTQSPDSLAVSLGERATINCKSSRSVDYYGIGFVNWYQQKPGQPPKLLIYATSIQGSGVPDRFSGSGSGTDFTLTISSLQAEDVAVYYCQQQKEVPPTFGGGTKVEIK |  |  |  |  | 2.1 nM | 0.00034 s⁻¹ | 160000 M⁻¹ s⁻¹
anti-GPNMB antibody GPN-87 (antibody, V domains shown) VH: QVQLQESGPGLVKPSETLSLTCTVSGISITTGNYRWSWIRQPPGKGLEWIGYIDYSGTITYNPSLKSRVTITRDTSKNQFSLELSSVTAADTAVYYCARDLTHWYYDVWGQGTLVTVSS VL: DIVMTQSPDSLAVSLGERATINCKSSRSVDYYGIGFLNWYQQKPGQPPKLLIYATSKQGSGVPDRFSGSGSGTDFTLTISSLQAEDVAVYYCQQQKEVPPTFGGGTKVEIK |  |  |  |  | 1.5 nM | 0.00028 s⁻¹ | 190000 M⁻¹ s⁻¹
anti-GPNMB antibody GPN-85 (antibody, V domains shown) VH: QVQLQESGPGLVKPSETLSLTCTVSGISITTGNYRWSWIRQPPGKGLEWIGYIDYSGTITYNPSLKQRVTITRDTSKNQFSLELSSVTAADTAVYYCARDLTHWYFDVWGQGTLVTVSS VL: DIVMTQSPDSLAVSLGERATINCKSSRSVDYFGIGFLNWYQQKPGQPPKLLIYATSHQGSGVPDRFSGSGSGTDFTLTISSLQAEDVAVYYCQQQKEVPPTFGGGTKVEIK |  |  |  |  | 0.5 nM | 7.4e-05 s⁻¹ | 140000 M⁻¹ s⁻¹
anti-GPNMB antibody GPN-35 (antibody, human IgG1, V domains shown, chimeric) VH: EVQLVESGGGSVRPGRSLKLSCAAAGFTFSDYYMTWVRQAPTKGLEWVASINHDGGGTYYRDSVKGRFTISRDNARSSLYLQMDSLRSEDTGTYYCTTRAGWHWGQGVMVTVSS VL: DIQMTQSPASLSASLGETVSIECLASEDIYNYLTWYQQKPGKSPQVLIYSASGLQDGVPSRFSGSGSGRQYSLKINGLESEDAATYFCLQDSEYPLTFGSGTKLEIK | 2.1 nM | 0.00012 s⁻¹ | 56000 M⁻¹ s⁻¹ | 1.17 nM |  |  | 
anti-GPNMB antibody GPN-41 (antibody, human IgG1, V domains shown, chimeric) VH: QLQLQQSGTEVVKPGASVKIPCKASGYAFSSYWMNWVKQRPGKGLEWIGQIYPGDGDTNDNGKFEGKATLTVDKSSNTAYIQLSSLTSEDSAVYFCARSPLHLRGSMDYWGQGTSVTVSS VL: SIVMTQTPKFLLVSAGDRVTITCKASQSVSNDVAWFQQKPGQSPELLIYSASNRYTGVPDRFTASGYGTDFTFTISAVQAEDLAVYFCQQNYYSPFTFGGGTRLEIK | 0.4 nM | 3.7e-05 s⁻¹ | 97000 M⁻¹ s⁻¹ |  |  |  | 
anti-GPNMB antibody GPN-48 (antibody, human IgG1, V domains shown, chimeric) VH: QVQLQQSGPELVKPGASVKLSCRASGYGFSSFWMNWVKQRPGKGLEWIGRIYPGKGDTLYNGKFKDKATLTADESSSTAYMQLSSLTSEDSAVYFCARSIYYYDYWYFDVWDTGTTVTVSS VL: DIVMTQSHKFMSTSVGDRVNITCKASQDVNSAIAWYQQKPGQSPKLLIYSASYRFIGVPDRFTGSGSGTGFTFTISSVQAEDLAVYYCQQHYTTPLTFGAGTKLELK |  |  |  | 1.2 nM |  |  | 

The remaining lines, values ahead:

Kd [1] | koff [1] | kon [1] | IC50 [2] | Kd [3] | koff [3] | kon [3] | Binder
 |  |  |  | 0.8 nM | 0.00012 s⁻¹ | 160000 M⁻¹ s⁻¹ | anti-GPNMB antibody GPN-89 (antibody, V domains shown) VH: QVQLQESGPGLVKPSETLSLTCTVSGISITTGNYRWSWIRQPPGKGLEWIGYIDYSGTITYNPSLKSRVTITRDTSKNQFSLELSSVTAADTAVYYCARDLTHWYYDVWGQGTLVTVSS VL: DIVMTQSPDSLAVSLGERATINCKSSRSVDYYGIGFLNWYQQKPGQPPKLLIYATSHQGSGVPDRFSGSGSGTDFTLTISSLQAEDVAVYYCQQQKEVPPTFGGGTKVEIK
 |  |  |  | 1.1 nM | 0.00017 s⁻¹ | 150000 M⁻¹ s⁻¹ | anti-GPNMB antibody GPN-88 (antibody, V domains shown) VH: QVQLQESGPGLVKPSETLSLTCTVSGISITTGNYRWSWIRQPPGKGLEWIGYIDYSGTITYNPSLKSRVTITRDTSKNQFSLELSSVTAADTAVYYCARDLTHWYFDVWGQGTLVTVSS VL: DIVMTQSPDSLAVSLGERATINCKSSRSVDYYGIGFLNWYQQKPGQPPKLLIYATSHQGSGVPDRFSGSGSGTDFTLTISSLQAEDVAVYYCQQQKHVPPTFGGGTKVEIK
 |  |  |  | 0.7 nM | 0.00011 s⁻¹ | 160000 M⁻¹ s⁻¹ | anti-GPNMB antibody GPN-90 (antibody, V domains shown) VH: QVQLQESGPGLVKPSETLSLTCTVSGISITTGNYRWSWIRQPPGKGLEWIGYIDYSGTITYNPSLKQRVTITRDTSKNQFSLELSSVTAADTAVYYCARDLTHWYFDVWGQGTLVTVSS VL: DIVMTQSPDSLAVSLGERATINCKSSRSVDYYGIGFLNWYQQKPGQPPKLLIYATSHQGSGVPDRFSGSGSGTDFTLTISSLQAEDVAVYYCQQQKEVPPTFGGGTKVEIK
 |  |  |  | 1.1 nM | 0.00014 s⁻¹ | 140000 M⁻¹ s⁻¹ | anti-GPNMB antibody GPN-91 (antibody, V domains shown) VH: QVQLQESGPGLVKPSETLSLTCTVSGISITTGNYRWSWIRQPPGKGLEWIGYIDYSGTITYNPSLKSRVTITRDTSKNQFSLELSSVTAADTAVYYCARDLTHWYFDVWGQGTLVTVSS VL: DIVMTQSPDSLAVSLGERATINCKSSRSVDYYGIGFLNWYQQKPGQPPKLLIYATSHQGSGVPDRFSGSGSGTDFTLTISSLQAEDVAVYYCQQQKERPPTFGGGTKVEIK
